Assay results from patent US7291458B2, “Leptin-mediated gene-induction” (Vlaams Interuniversitair Instituut Voor Biotechnologie VZW, priority 1998, dated 2007).

System: PC12-LR8 cells
Assay: Northern blot analysis of gene induction in non-differentiated PC12-LR8 cells
Type: cell-based, rat
Procedure: PC12-LR8 cells were treated with leptin (L), forskolin (F), or a combination of both (F/L) for the indicated length of time. Hybridization with the mouse b-actin probe was used as a control. NI stands for non-induced control cells. Sizes of transcripts are shown on the right. Exposure times to Biomax MS films were 5.5 days for LIP-I and LIP-II, and 1 day for the corresponding b-actin blot, all at −80° C.
FIG. 6A. Induction patterns of Reg I, HIP-I and peripherin after a 12 hours stimulation with forskolin (F), leptin (L), forskolin plus leptin (F/L), hyper-IL-6 (H) or forskolin plus hyper-IL-6 (F/H). Untreated cells were analyzed as a control (NI). Exposure times to BioMax MS films for Reg I, HIP-I and b-actin were 4 days, 5 days and 3 hours, respectively; and in a separate experiment for peripherin and b-actin, 16 hours and 2 days.
FIG. 6B Induction patterns of PAP I, PAP III, MT-II, Fnk, MRF-1, SOCS-3 and STAT-3 after stimulation with leptin (L) or hyper-IL-6 (H), compared to non-treated control cells (NI). In all cases stimulation was for 12 hours, with the exception of PAP III where stimulation was for 24 hours. b-actin hybridization patterns are shown as control. Exposure times to BioMax MS films at −80° C. were 16 hours for PAP I and 1 hour for b-actin; 4 days for PAP III and 1 hour for b-actin; 3 days for MT-II and Fnk, and2 days for b-actin; 3 days for MRF-1, 2.5 days for SOCS-3 and2 days for b-actin; and 16 hours for STAT-3 and 3 hours for b-actin.
FIG. 8A. Northern blot analysis of the immediate early response genes. PC12-LR8 cells were left untreated (NI: non induced), or were treated with forskolin (F), leptin (L) or a combination of both (F/L) for the indicated time points. Exposure times to BioMax MS films for the different transcripts were Fnk: 6 days, MT-II: 5 days, MRF-1: 6 days, SOCS-3: 14 hours, STAT-3: 14 hours, b-actin: 5 hours.
FIG. 8B. Immediate early response gene-set: early kinetics. PC12-LR8 cells were treated with leptin alone (L) or with a combination of leptin and forskolin (F/L) for the indicated length of time. Exposure time to BioMax MS films were: Fnk: 3 days, MT-II: 3 days, MRF-1: 3 days, SOCS-3: 2.5 days, STAT-3: 2.5 days, b-actin: 1 hour.
FIG. 8C. Northern blot analysis of the late target genes. PC12-LR8 cells were left untreated (NI), or were treated with forskolin (F), leptin (L) or a combination of both (F/L) for the indicated length of time. Exposure times to BioMax MS films were: Ann VIII: 6 days, PAP I: 14 hours, Squalene Epoxidase: 5 days, UGT: 5 days, b-actin: 14 hours.
PC12 cells were cultured in RPMI 1640 medium with glutamax-I (GibcoBRL) containing 10% heat-inactivated foetal calf serum (iFCS) and gentamycin (50 μg/ml). The cells were treated with medium alone or supplemented with 100 ng/ml of mouse leptin (R&D Systems), with forskolin (Sigma) at a concentration of 10 μM or with a combination both, unless otherwise indicated.
Total RNA was prepared from PC12 cells using RNeasy™ method (Qiagen). RNA (10 μg) was separated on a 1.5% agarose,6% formaldehyde gel, transferred to a nylon membrane (Zeta-Probe GT Genomic, Bio-Rad), and cross-linked using UV radiation. The filters were hybridized for one hour at 68° C. in ExpressHyb™ solution (Clontech) with [^32P]dCTP-labeled DNA-probes and washed 3 times with 2×SSC, 0.05% SDS at room temperature and twice in 0.1×SSC, 0.1% SDS at 50° C. Autoradiographs were obtained by exposing the blots to BioMax MS film (Kodak) with intensifying screens at −70° C. All Northern blots were normalized by hybridization using a b-actin probe.

B1: leptin: mouse leptin (R&D Systems), ob gene product, used on PC12 cells at 100 ng/ml (protein)
chain: VPIQKVQDDTKTLIKTIVTRINDISHTQSVSAKQRVTGLDFIPGLHPILSLSKMDQTLAVYQQVLTSLPSQNVLQIANDLENLRDLLHLLAFSKSCSLPQTSGLQKPESLDGVLEASLYSTEVVALSRLQGSLQDILQQLDVSPEC
- kinetics of synthesis of SOCS-3 mRNA (2 hours post stimulation): rapid decline
- time of optimal mRNA levels post induction (Annexin VIII, Squalene epoxidase): over 96 hours
- time of induction of immediate early response genes (Fnk, MT-II, MRF-1, STAT-3, SOCS-3, leptin treatment): ≤ 4 h
- time of optimal mRNA levels post induction (PAP I, UGT): 22 h
- time of induction of late activated target genes after stimulus (PAP I, UGT, Ann VIII, squalene epoxidase, leptin treatment): ≥ 6 h
- induction of HIP-I and Reg transcripts (RDA hyper-IL-6 versus leptin): not induced
- time of optimal stimulation post induction (SOCS-3): 30 min
- time of optimal stimulation post induction (STAT-3): 480 min
- induction of PAP I and PAP III transcripts (without forskolin): requires forskolin co-stimulation
